The values that follow come from article PMC8699515, “Native llama Nanobody Library Panning Performed by Phage and Yeast Display Provides Binders Suitable for C-Reactive Protein Detection” (Biosensors, 2021).

B5: C-reactive protein (CRP) from human pleural fluid (natural protein, UniProt P02741 19-224, looked up)
chain: QTDMSRKAFVFPKESDTSYVSLKAPLTKPLKAFTVCLHFYTELSSTRGYSIFSYATKRQDNEILIFWSKDIGYSFTVGGSEILFEVPEVTVAPVHICTSWESASGIVEFWVDGKPRVRKSLKKGYTVGAEASIILGQEQDSFGGNFEGSQSLVGDIGNVNMWDFVLSPDEINTIYLGGPFSPNVLNWRALKYEVQGEVFTKPQLWP
notes: C-reactive protein, human, purified from pleural fluid; source: bought: LEE Biosolutions (from human pleural fluid)

Assay [1] addresses B5. As to the kind of experiment: ELISA; phage screening ELISA: CRP 0.25 ug/well coated overnight at 4 C on MaxiSorp, saturated with 3% BSA-PBS; phages in culture supernatant (100 uL, not normalised) 2 h at room temperature; anti-M13 HRP, TMB, absorbance at 450 nm; ratio of the CRP signal to the BSA control, triplicates. The settings on record: one partner purified.
Assay [2] has as its target B5. Description: ELISA; CRP (0.5 ug/well) or BSA coated 2 h at 37 C; purified nanobodies 0.5 ug/well (A6, A12, B9, H7) or 0.1 ug/well (E12) in 2% BSA in PBS, 2 h at room temperature; anti-His and anti-mouse HRP, TMB. The settings on record: both partners purified. In general terms: In an ELISA, binding on a coated surface is turned into a signal by an enzyme label.
The target of assay [3] is B5. Description: ELISA; CRP (0.5 ug/well) or BSA coated overnight at 4 C; purified nanobodies 0.5 ug/well (A6, A12, B9, H7) or 0.1 ug/well (E12) in 2% BSA in PBS, 2 h at room temperature; anti-His and anti-mouse HRP, TMB. As to conditions: both partners purified.
The target of assay [4] is B5. Description: BLI; Octet K2; CRP (25 nM) in PBS immobilised on aminopropylsilane (APS) tips, blocked with 1% BSA/PBS; nanobodies 10-1200 nM in 0.1% BSA/PBS; 30 C; 1:1 model, global fit. The settings on record: both partners purified.
For assay [5], the target named is T1, E12 fused to mouse Fc (E12-mFc) (llama).
T1 construct: as the VHH of m7
As to the kind of experiment: ELISA; short protocol (coating 2 h at 37 C) with CRP 1 to 10 ug/mL; 25 ug/mL E12-mFc; anti-mouse HRP, TMB; triplicate. The settings on record: both partners purified.

Assay [6] has as its target T2, BSA (Bos taurus, UniProt P02769).
T2 construct: BSA (serum albumin), used as negative control
Description: electrochemical impedance spectroscopy; gold electrode carrying E12-SpyTag held by SpyCatcher; CRP or BSA in solution; room temperature, 0.1 M KNO3 with 5 mM K3[Fe(CN)6]/K4[Fe(CN)6]; triplicate. As to conditions: both partners purified.

Broadly, the Kd is the free concentration of one partner at which half of the binding sites on the other are occupied at equilibrium, for simple one-to-one binding.

T2 sequence (P02769 25-607): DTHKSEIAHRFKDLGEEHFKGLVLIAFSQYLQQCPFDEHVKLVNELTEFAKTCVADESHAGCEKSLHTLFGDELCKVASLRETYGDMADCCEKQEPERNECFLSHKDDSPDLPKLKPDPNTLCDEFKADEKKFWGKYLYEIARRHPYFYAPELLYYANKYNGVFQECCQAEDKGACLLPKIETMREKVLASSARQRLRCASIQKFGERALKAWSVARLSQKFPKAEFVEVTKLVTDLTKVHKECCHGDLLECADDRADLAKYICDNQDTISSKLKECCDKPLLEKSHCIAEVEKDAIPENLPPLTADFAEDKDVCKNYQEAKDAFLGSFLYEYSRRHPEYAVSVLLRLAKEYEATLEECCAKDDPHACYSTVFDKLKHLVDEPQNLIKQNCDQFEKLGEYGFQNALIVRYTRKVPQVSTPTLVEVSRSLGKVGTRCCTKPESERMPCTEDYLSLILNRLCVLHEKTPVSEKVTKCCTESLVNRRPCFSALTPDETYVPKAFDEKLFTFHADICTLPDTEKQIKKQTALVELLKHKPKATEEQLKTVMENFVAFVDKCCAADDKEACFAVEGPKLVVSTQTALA

B1: anti-CRP nanobody A10 displayed on phage (VHH)
VHH: EVQLQASGGGLVQAGGSLRLSCVASRSILSLAVMGWYRQAPGKERELVASITSGGNTNYADVVKGRFIISRDNAKNTVNLQMNTLRPEDTAVYYCSAKSILTGPNHWRQETQVTVSS
notes: source: E. coli TG1 with M13K07 helper phage, phages in culture supernatant
With B1, the “Screening ELISA (CRP/BSA Signal)” value in assay [1] came out at 12.3.

B2: anti-CRP nanobody C10 displayed on phage (VHH)
VHH: EVQLQASGGGLVQAGGSLRLSCAASGRTFSNYGMGWFRQAPGKEREFVAAITSGGSTYYRDSVKGRFTISRDNAKNTVYLQMNSLKPDDTAVYYCAASRGVTAIWGSSYDYWGQRTLVTVSS
notes: C10 gave no soluble 6xHis-SpyTag construct; source: E. coli TG1 with M13K07 helper phage, phages in culture supernatant
With B2, the “Screening ELISA (CRP/BSA Signal)” value in assay [1] stood at 14.6.

B3: anti-CRP nanobody H7 fused to 6xHis-SpyTag (VHH)
VHH: EVQLQASGGGLVQAGGSLRLSCAASGRTFSSYATGWYRQAPGKERELVAAISSGGSTYYADSVKGRFTISRDNAKNTVYLQMNSLKAEDTAVYYCAGGRRVGVLIGNEYDYWGQGTLVTVSS
notes: pET14-derived vector
Consider B3, for which the ELISA signal in assay [2] worked out at 0.904; in assay [3], 1.47. In assay [4], this molecule registered a Kd of 154 nM.

B4: anti-CRP nanobody C1 displayed on phage (VHH)
VHH: DVQLQASGGGLVQPGGSLRLSCRAPRMVFRRNVMGWFRQAPGKQRELVAYITNDGVTKYTDSVKGRFTISRDNAENTMYLQMNNLKTEDTAVYYCNVRRVLGIAGYWGQGTQVTVSS
notes: as for B1
Take B4: the “Screening ELISA (CRP/BSA Signal)” value in assay [1] was 12.5.
Regarding B5, in assay [5], the binding result is reported as “binds”.

B6: anti-CRP nanobody A12 fused to 6xHis-SpyTag (VHH)
VHH: EVQLQASGGGLVQAGGSLGLSCAASTRAFSTYAMGWFRQVPGKEREFVAAISSGGSTVYADSVKGRFTISRDNAKNTVYLQMNNLRPEDTAVYYCAARQGIVVRSPTRMDYWGQGTQVTVSS
notes: pET14-derived vector
For B6, the figures for the ELISA signal in assay [2] and in assay [3] were 0.974 and 1.23, respectively. Moreover, the Kd in assay [4] is 122 nM.

B7: anti-CRP nanobody A12 displayed on phage (VHH)
VHH: EVQLQASGGGLVQAGGSLGLSCAASTRAFSTYAMGWFRQVPGKEREFVAAISSGGSTVYADSVKGRFTISRDNAKNTVYLQMNNLRPEDTAVYYCAARQGIVVRSPTRMDYWGQGTQVTVSS
notes: as for B1
As for B7, the “Screening ELISA (CRP/BSA Signal)” value in assay [1] came to 15.5.

B8: anti-CRP nanobody E12 fused to 6xHis-SpyTag (VHH)
VHH: EVQLQASGGGLVQAGGSLRLSCAASRRPSSFKVMGWYRQAPGKQRELVARITSGGSTDYADSVKGRFTISRDNAKNTVYLQMNSLEPEDTAVYYCNAYRWGRDNWGQGTQVTVSS
notes: pET14-derived vector; In the biosensor it was held by SpyCatcher attached to the gold electrode
Turning to B8, the ELISA signal in assay [2] was 2.6; in assay [3], 2.84. The binding result in assay [6] is on record as “no binding (tested: 1 μg/mL)”. The molecule also returned a Kd in assay [4] of 13 nM.

B9: anti-CRP nanobody E12 displayed on phage (VHH)
VHH: EVQLQASGGGLVQAGGSLRLSCAASRRPSSFKVMGWYRQAPGKQRELVARITSGGSTDYADSVKGRFTISRDNAKNTVYLQMNSLEPEDTAVYYCNAYRWGRDNWGQGTQVTVSS
notes: as for B1
On to B9, for which the “Screening ELISA (CRP/BSA Signal)” value in assay [1] was found to be 13.3.

B10: anti-CRP nanobody A6 displayed on phage (VHH)
VHH: EVQLQASGGGLVRPGGSLRLSCAVSGGTLSNYAVGWFRRAPGNQRELVATFTSGGTTLYADSVKGRFTISRDNLKNTVYLQMNSLKPEDTAVYYCAAKPGRASSQATDYDAWGQGTQVTVSS
notes: as for B1
In the case of B10, in assay [1], the “Screening ELISA (CRP/BSA Signal)” value came out at 11.8.

B11: anti-CRP nanobody A6 fused to 6xHis-SpyTag (VHH)
VHH: EVQLQASGGGLVRPGGSLRLSCAVSGGTLSNYAVGWFRRAPGNQRELVATFTSGGTTLYADSVKGRFTISRDNLKNTVYLQMNSLKPEDTAVYYCAAKPGRASSQATDYDAWGQGTQVTVSS
notes: pET14-derived vector
Regarding B11, the ELISA signal is 0.231 in assay [2] and 0.476 in assay [3]. In assay [4], this molecule gave a Kd of 51 nM.

B12: anti-CRP nanobody B9 displayed on phage (VHH)
VHH: EVQLQASGGGSVQAGGSLRLSCATSGIIFRNNIMTWYRQAPGKNRELVATITTGGSTNYSDSVKGRFTISRDNTKNTVYLQMSNLKPDDTGVYYCNARRNRFLTGSYGQGTQVTVSS
notes: as for B1
Turning to B12, in assay [1], the “Screening ELISA (CRP/BSA Signal)” value was 14.6.

B13: anti-CRP nanobody B9 fused to 6xHis-SpyTag (VHH)
VHH: EVQLQASGGGSVQAGGSLRLSCATSGIIFRNNIMTWYRQAPGKNRELVATITTGGSTNYSDSVKGRFTISRDNTKNTVYLQMSNLKPDDTGVYYCNARRNRFLTGSYGQGTQVTVSS
notes: pET14-derived vector
Consider B13, for which the ELISA signal in assay [2] was determined as 2.28; in assay [3], 1.56.
